Source: US20200087400A1 (EUREKA THERAPEUTICS, published 2020)

Legend:
[1] = biological target: T1, control peptide A2E-10/HLA-A*02:01 complex on T2 cells (member of the P19 mixture) (human); assay: FACS; scFv phage on T2 cells loaded with the P19 mixture
T1 construct: Loaded on T2 cells as part of the mixture of 19 control peptides
Protocol: (§1) Individual phage clones from enriched phage display panning pools against PSA146/HLA-A*02:01 complex were incubated in the coated plates. Binding of the phage clones was detected by HRP-conjugated anti-M13 antibodies and developed using HRP substrate. The absorbance was read at 450 nm. […] Then, unique antibody clones were identified through DNA sequencing of ELISA-positive clones. […] T2 cells loaded with different peptides and β2M were first stained with purified scFv phage clones, followed by staining with a mouse anti-M13 mAb, and finally R-PE conjugated horse anti-mouse IgG from Vector Labs. Each step of the staining was performed for between 30-60 minutes on ice and the cells were washed twice between stainings. All 16 clones recognized PSA146-loaded T2 cells specifically. FIG. 3 provides examples of PSA146/HLA-A*02:01 specific phage clone binding to peptide-loaded T2 cells through FACS.

[2] = biological target: T2, control peptide A2E-8/HLA-A*02:01 complex on T2 cells (member of the P19 mixture) (human); assay: as above
T2 construct: Loaded on T2 cells as part of the mixture of 19 control peptides
Protocol: as §1

[3] = biological target: T3, control peptide A2E-4/HLA-A*02:01 complex on T2 cells (member of the P19 mixture) (human); assay: as above
T3 construct: Loaded on T2 cells as part of the mixture of 19 control peptides
Protocol: as §1

[4] = biological target: T4, control peptide A2E-13/HLA-A*02:01 complex on T2 cells (member of the P19 mixture) (human); assay: as above
T4 construct: Loaded on T2 cells as part of the mixture of 19 control peptides
Protocol: as §1

[5] = biological target: T5, control peptide A2E-5/HLA-A*02:01 complex on T2 cells (member of the P19 mixture) (human); assay: as above
T5 construct: Loaded on T2 cells as part of the mixture of 19 control peptides
Protocol: as §1

[6] = biological target: T6, control peptide A2E-1/HLA-A*02:01 complex on T2 cells (member of the P19 mixture) (human); assay: as above
T6 construct: Loaded on T2 cells as part of the mixture of 19 control peptides
Protocol: as §1

[7] = biological target: T7, control peptide A2E-17/HLA-A*02:01 complex on T2 cells (member of the P19 mixture) (human); assay: as above
T7 construct: Loaded on T2 cells as part of the mixture of 19 control peptides
Protocol: as §1

[8] = biological target: T8, control peptide A2E-2/HLA-A*02:01 complex on T2 cells (member of the P19 mixture) (human); assay: as above
T8 construct: Loaded on T2 cells as part of the mixture of 19 control peptides
Protocol: as §1

[9] = biological target: T9, control peptide A2E-15/HLA-A*02:01 complex on T2 cells (member of the P19 mixture) (human); assay: as above
T9 construct: Loaded on T2 cells as part of the mixture of 19 control peptides
Protocol: as §1

[10] = biological target: T10, control peptide A2E-9/HLA-A*02:01 complex on T2 cells (member of the P19 mixture) (human); assay: as above
T10 construct: Loaded on T2 cells as part of the mixture of 19 control peptides
Protocol: as §1

[11] = biological target: T11, control peptide A2E-11/HLA-A*02:01 complex on T2 cells (member of the P19 mixture) (human); assay: as above
T11 construct: Loaded on T2 cells as part of the mixture of 19 control peptides
Protocol: as §1

[12] = biological target: T12, control peptide A2E-23/HLA-A*02:01 complex on T2 cells (member of the P19 mixture) (human); assay: as above
T12 construct: Loaded on T2 cells as part of the mixture of 19 control peptides
Protocol: as §1

[13] = biological target: T13, control peptide A2E-6/HLA-A*02:01 complex on T2 cells (member of the P19 mixture) (human); assay: as above
T13 construct: Loaded on T2 cells as part of the mixture of 19 control peptides
Protocol: as §1

[14] = biological target: T14, control peptide A2E-14/HLA-A*02:01 complex on T2 cells (member of the P19 mixture) (human); assay: as above
T14 construct: Loaded on T2 cells as part of the mixture of 19 control peptides
Protocol: as §1

[15] = biological target: T15, control peptide A2E-3/HLA-A*02:01 complex on T2 cells (member of the P19 mixture) (human); assay: as above
T15 construct: Loaded on T2 cells as part of the mixture of 19 control peptides
Protocol: as §1

[16] = biological target: T16, control peptide A2E-21/HLA-A*02:01 complex on T2 cells (member of the P19 mixture) (human); assay: as above
T16 construct: Loaded on T2 cells as part of the mixture of 19 control peptides
Protocol: as §1

[17] = biological target: T17, control peptide A2E-7/HLA-A*02:01 complex on T2 cells (member of the P19 mixture) (human); assay: as above
T17 construct: Loaded on T2 cells as part of the mixture of 19 control peptides
Protocol: as §1

[18] = biological target: T18, control peptide A2E-19/HLA-A*02:01 complex on T2 cells (member of the P19 mixture) (human); assay: as above
T18 construct: Loaded on T2 cells as part of the mixture of 19 control peptides
Protocol: as §1

[19] = biological target: T19, control peptide A2E-16/HLA-A*02:01 complex on T2 cells (member of the P19 mixture) (human); assay: as above
T19 construct: Loaded on T2 cells as part of the mixture of 19 control peptides
Protocol: as §1

[20] = biological target: T20, HLA-A*02:01 on T2 cells with no peptide loaded (human); assay: FACS; scFv phage on T2 cells without peptide
T20 construct: TAP-deficient T2 cells, no peptide loaded from outside; also called T2 cells without peptide loading
Protocol: as §1

[21] = biological target: T21, PSA 146-154 peptide/HLA-A*02:01 complex on the cell surface (human); assay: FACS; scFv phage on PSA146-loaded live T2 cells
T21 construct: also called PSA146/HLA-A*02:01; PSA146-loaded T2 cells
Protocol: as §1

B1: PSA146/HLA-A*02:01-specific scFv phage clone #8 (scFv, V domains shown)
VH: QVQLQQWGAGLLKPSETLSLTCAVKGGSFSDYYWSWIRQPPGKGLEWIGEINHSGGTNYNPSLKSRVTISVDTSKNQFSLKLLSVTAADTAVYYCARYNEYGSGYDKWGQGTLVTVSS
VL: QSVLTQPPSVSAAPGQKVTISCSGSSYNIGNNYVSWYQQLPGTAPKLLIYDNNKRPSGIPDRFSGSKSGTSATLGITGLQTGDEAEYYCGTWESSLSAYVFGTGTKVTVLG
binding result [1]: no binding | binding result [2]: no binding | binding result [3]: no binding | binding result [4]: no binding | binding result [5]: no binding | binding result [6]: no binding | binding result [7]: no binding | binding result [8]: no binding | binding result [9]: no binding | binding result [10]: no binding | binding result [11]: no binding | binding result [12]: no binding | binding result [13]: no binding | binding result [14]: no binding | binding result [15]: no binding | binding result [16]: no binding | binding result [17]: no binding | binding result [18]: no binding | binding result [19]: no binding | binding result [20]: no binding | binding result [21]: binds
